Laboratory results published in US20190248900A1 (Y BIOLOGICS, published 2019).

T1: OSTM1 (Homo sapiens (Human), UniProt Q86WC4 32-284)
T1 sequence: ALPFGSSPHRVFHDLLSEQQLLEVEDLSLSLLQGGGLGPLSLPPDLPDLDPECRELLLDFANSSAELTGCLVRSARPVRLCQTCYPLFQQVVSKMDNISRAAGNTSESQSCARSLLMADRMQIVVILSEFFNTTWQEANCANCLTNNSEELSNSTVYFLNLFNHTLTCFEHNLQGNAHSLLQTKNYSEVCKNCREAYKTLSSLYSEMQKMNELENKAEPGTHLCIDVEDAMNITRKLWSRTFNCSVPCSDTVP

T2: ITGA6-Fc
T2 construct: Fc fusion
T2 sequence (P23229 whole entry, species assumed, looked up): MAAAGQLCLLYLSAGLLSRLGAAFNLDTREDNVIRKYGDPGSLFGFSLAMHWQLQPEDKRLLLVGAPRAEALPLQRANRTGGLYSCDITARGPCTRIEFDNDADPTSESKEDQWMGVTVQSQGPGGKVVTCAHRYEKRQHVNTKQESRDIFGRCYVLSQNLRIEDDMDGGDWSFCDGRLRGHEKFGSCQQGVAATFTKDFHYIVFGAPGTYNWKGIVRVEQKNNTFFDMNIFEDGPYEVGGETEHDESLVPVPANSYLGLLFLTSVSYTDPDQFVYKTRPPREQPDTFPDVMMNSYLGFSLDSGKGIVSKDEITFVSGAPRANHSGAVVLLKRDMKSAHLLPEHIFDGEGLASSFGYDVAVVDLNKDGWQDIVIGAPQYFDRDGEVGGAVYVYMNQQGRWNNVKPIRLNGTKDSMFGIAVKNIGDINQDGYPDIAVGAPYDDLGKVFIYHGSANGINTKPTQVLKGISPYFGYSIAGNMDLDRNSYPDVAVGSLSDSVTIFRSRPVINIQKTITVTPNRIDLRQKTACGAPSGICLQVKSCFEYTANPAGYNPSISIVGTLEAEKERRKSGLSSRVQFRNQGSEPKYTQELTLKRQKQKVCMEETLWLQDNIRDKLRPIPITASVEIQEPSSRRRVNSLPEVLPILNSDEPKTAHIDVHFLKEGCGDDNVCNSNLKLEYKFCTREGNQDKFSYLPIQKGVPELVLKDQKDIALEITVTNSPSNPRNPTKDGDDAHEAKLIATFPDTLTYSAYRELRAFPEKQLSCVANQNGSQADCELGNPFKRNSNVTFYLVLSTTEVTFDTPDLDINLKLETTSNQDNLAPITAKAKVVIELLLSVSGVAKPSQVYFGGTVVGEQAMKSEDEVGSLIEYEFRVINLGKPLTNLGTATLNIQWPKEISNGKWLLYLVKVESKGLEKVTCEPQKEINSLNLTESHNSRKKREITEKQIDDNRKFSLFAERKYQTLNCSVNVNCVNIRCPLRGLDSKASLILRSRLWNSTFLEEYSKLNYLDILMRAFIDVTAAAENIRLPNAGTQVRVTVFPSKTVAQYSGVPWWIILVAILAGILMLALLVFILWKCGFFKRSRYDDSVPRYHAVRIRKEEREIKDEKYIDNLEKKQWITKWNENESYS


How the values were obtained:
OSTM1 = molecular target: T1, OSTM1; assay: ELISA
M2-1 = molecular target: T3, M2-1; assay: ELISA, 1 ug/ml
T3 construct: also called PD1 mutant M2-1

M2-2 [1] = molecular target: T4, M2-2; assay: ELISA, 1 ug/ml
T4 construct: also called PD1 mutant M2-2

M3 = molecular target: T5, M3; assay: ELISA, 1 ug/ml
T5 construct: also called PD1 mutant M3

M4 = molecular target: T6, M4; assay: ELISA, 1 ug/ml
T6 construct: also called PD1 mutant M4

M11 = molecular target: T7, M11; assay: ELISA, 1 ug/ml
T7 construct: also called PD1 mutant M11

M5 = molecular target: T8, M5; assay: ELISA, 1 ug/ml
T8 construct: also called PD1 mutant M5

M5-1 = molecular target: T9, M5-1; assay: ELISA, 1 ug/ml
T9 construct: also called PD1 mutant M5-1

M5-2 = molecular target: T10, M5-2; assay: ELISA, 1 ug/ml
T10 construct: also called PD1 mutant M5-2

M6 [2] = molecular target: T11, M6; assay: ELISA, 1 ug/ml
T11 construct: also called PD1 mutant M6

M12 = molecular target: T12, M12; assay: ELISA, 1 ug/ml
T12 construct: also called PD1 mutant M12

M13 = molecular target: T13, M13; assay: ELISA, 1 ug/ml
T13 construct: also called PD1 mutant M13

M14 = molecular target: T14, M14; assay: ELISA, 1 ug/ml
T14 construct: also called PD1 mutant M14

M7 = molecular target: T15, M7; assay: ELISA, 1 ug/ml
T15 construct: also called PD1 mutant M7

M7-1 = molecular target: T16, M7-1; assay: ELISA, 1 ug/ml
T16 construct: also called PD1 mutant M7-1

M7-2 = molecular target: T17, M7-2; assay: ELISA, 1 ug/ml
T17 construct: also called PD1 mutant M7-2

M8 = molecular target: T18, M8; assay: ELISA, 1 ug/ml
T18 construct: also called PD1 mutant M8

M9 = molecular target: T19, M9; assay: ELISA, 1 ug/ml
T19 construct: also called PD1 mutant M9

M10 = molecular target: T20, M10; assay: ELISA, 1 ug/ml
T20 construct: also called PD1 mutant M10

ITGA6-Fc = molecular target: T2, ITGA6-Fc; assay: ELISA, 1 ug/ml
M1 = molecular target: T21, M1; assay: ELISA, 1 ug/ml
T21 construct: also called PD1 mutant M1

M1-1 = molecular target: T22, M1-1; assay: ELISA, 1 ug/ml
T22 construct: also called PD1 mutant M1-1

M1-2 [3] = molecular target: T23, M1-2; assay: ELISA, 1 ug/ml
T23 construct: also called PD1 mutant M1-2

[4] = molecular target: T24, PD1-his (Catalog Number 10377-H08H, Sino Biological Inc.) (UniProt Q15116 25-167); assay: ELISA, 1 ug/ml
T24 construct: bought protein; not shown: His tag

M2-2 [5] = molecular target: T4, M2-2; assay: scFv-phage ELISA
M6 [6] = molecular target: T11, M6; assay: scFv-phage ELISA
M1-2 [7] = molecular target: T23, M1-2; assay: scFv-phage ELISA

T24 sequence (Q15116 25-167 limits assumed): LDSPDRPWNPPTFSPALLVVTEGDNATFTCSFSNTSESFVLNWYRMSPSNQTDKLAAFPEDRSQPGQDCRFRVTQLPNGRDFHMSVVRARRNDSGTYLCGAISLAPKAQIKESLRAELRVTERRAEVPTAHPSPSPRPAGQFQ

| Binder | OD490 (M2-1) | OD490 (M2-2 [1]) | OD490 (M3) | OD490 (M4) | OD490 (M11) | OD490 (M5) | OD490 (M5-1) | OD490 (M5-2) | OD490 (M6 [2]) | OD490 (M12) | OD490 (M13) | OD490 (M14) | OD490 (M7) | OD490 (M7-1) | OD490 (M7-2) | OD490 (M8) | OD490 (M9) | OD490 (M10) | OD490 (ITGA6-Fc) | OD490 (M1) | also measured |
| --- | --- | --- | --- | --- | --- | --- | --- | --- | --- | --- | --- | --- | --- | --- | --- | --- | --- | --- | --- | --- | --- |
| PD1-45D6 (antibody, V domains shown, scFv-phage in the screening ELISA; whole IgG in the other assays) VH: QVQLVESGGGVVQPGRSLRLSCAASGFTFSSYAMHWVRQVPGKGLEWVAVISYDGNDKYYADSVKGRFTISRDNSKNTLYLQMNSLRAEDTAVYYCVPTTFEYWGQGSQVTVSS VL: DIVMTQTPLSLPVTPGEAASISCRSSQSLLDSDDGKTYLDWYLQKPGQSPQLLIYTLSYRASGVPDRFSGSGSGTEFNLRISRVEAEDVGIYYCMQRVEFPFTFGQGTKLDIK | 3.9 | 3.8 | 3.8 | 3.9 | 0.7 | 3.6 | 3.8 | 3.9 | 3.9 | 3.9 | 4 | 3.9 | 0.5 | 1.3 | 4 | 3.8 | 3.8 | 3.9 | 0.5 | 4 | binding result (OSTM1): no binding (tested: 1 ug/ml); OD490 (M1-1): 3.8; OD490 (M1-2 [3]): 3.9; OD490 [4]: 3.8; OD490 (M2-2 [5]): 3.8; OD490 (M6 [6]): 3.9; OD490 (M1-2 [7]): 3.9 |
| PD1-52E8 (antibody, V domains shown, scFv-phage in the screening ELISA; whole IgG in the other assays) VH: QVQLVQSGGNLVQPGRSLRLSCAASGFTFDDYAMHWVRQAPGKGLEWVSGISWNSGTPGYADSVQGRFTISRDNAKNSLYLQMNSLRAEDTAVYYCARGHNYLDSSYYDYWGQGTLVTVSS VL: SYELTQPLSLSVAPGQTARITCSGDALSKEYSYWYQQKPGQAPVLVMYKDSERPSGIPERFSGSSSGTTVTLTISGVQAEDEADYYCQSVDSSDTSVVFGGGTKLTVL | 2.9 | 3.4 | 1.5 | 3.7 | 0.2 | 0.5 | 0.3 | 3.5 | 3.4 | 3.2 | 3.9 | 2.6 | 1 | 1.1 | 3.9 | 0.6 | 2.4 | 1 | 0.1 | 1.4 | OD490 (M1-1): 1.5; OD490 (M1-2 [3]): 3.6; OD490 [4]: 0.4; OD490 (M2-2 [5]): 3.4; OD490 (M6 [6]): 3.4; OD490 (M1-2 [7]): 3.6 |
| PD1-41C9 (antibody, V domains shown, scFv-phage in the screening ELISA; whole IgG in the other assays) VH: QMQLVESGGGVVQPGRSLRLSCAASGFTFSSYAMHWVRQAPGKGLEWVAVISYDGSNKYYADSVKGRFTISRDNSKNTLYLQMNRLRSEDTAVYYCTTTTFDSWGQGTLITVSS VL: DIVMTQTPLSLPVTPGEAASISCRSSQSLLDSEDGNTYLDWYLQKPGQSPQLLIYTLSHRASGVPDRFSGSGSGTDFTLKISRVAAEDVGLYYCLQRMGFPYTFGQGTKLDIK | 3.4 | 3.2 | 2.3 | 3.2 | 0.9 | 2.3 | 2.8 | 3.6 | 3.6 | 3.1 | 3.6 | 3.5 | 0.8 | 1.2 | 3 | 2.5 | 3.3 | 3.4 | 0.5 | 3.2 | binding result (OSTM1): no binding (tested: 1 ug/ml); OD490 (M1-1): 3.1; OD490 (M1-2 [3]): 3.2; OD490 [4]: 3.2; OD490 (M2-2 [5]): 3.2; OD490 (M6 [6]): 3.6; OD490 (M1-2 [7]): 3.2 |
| PD1-49A2 (antibody, V domains shown, scFv-phage in the screening ELISA; whole IgG in the other assays; also called Parent 49A2) VH: QVQLVESGGGVVQPGRSLRLSCAASGFTFSSYAMHWVRQAPGKGLEWVAVISYDGSNKYYADSVKGRFTISRDNPKNTLYLQMNSLRAEDTAVYYCTTTTFDSWGRGTLVTVSS VL: DIVMTQSPLSLPVTPGEPASISCRSSQSLFDSDDGNTYLDWYLQKPGQSPQLLIYTLSHRASGVPDRFSGSGSGTDFTLKISRVEAEDVGIYYCLQRMGFPYTFGQGTKVEIK | 3.7 | 3.8 | 3.4 | 3.9 | 0.4 | 1.2 | 0.7 | 3.8 | 3.9 | 3.9 | 3.9 | 3.9 | 0.4 | 0.5 | 2.2 | 3 | 3.7 | 2.6 | 0.2 | 3 | binding result (OSTM1): no binding (tested: 1 ug/ml); OD490 (M1-1): 3.4; OD490 (M1-2 [3]): 3.8; OD490 [4]: 3.6; OD490 (M2-2 [5]): 3.8; OD490 (M6 [6]): 3.9; OD490 (M1-2 [7]): 3.8 |
